24 molecules from US20220153822A1 (ALYTAS THERAPEUTICS, published 2022) can be followed below.

Experiment [1] concerns the target T1, Perilipin epitope 6 peptide EVRVPWLHSLAAAQE (SEQ ID NO. 333) (human, Biotin-PEG Spacer and GGSGGS Linker (SEQ ID NO. 438) at the N-terminus, or Biotin-PEG Spacer and AAAAA Linker (SEQ ID NO. 439) at the C-terminus).
T1 construct: Two biotinylated variants were used for selection and ELISA; On the peptide array it stood without biotin; also called target peptide
T1 peptide: EVRVPWLHSLAAAQE
The experiment can be described thus: phage display selection and ELISA on biotinylated target peptide.

Experiment [2] addresses T2, Perilipin epitope 5 peptide AKPSLLSRVGALTNT (SEQ ID NO. 332) (human, Biotin-PEG Spacer and GGSGGS Linker (SEQ ID NO. 438) at the N-terminus, or Biotin-PEG Spacer and AAAAA Linker (SEQ ID NO. 439) at the C-terminus).
T2 construct: Two biotinylated variants were used for selection and ELISA; On the peptide array it stood without biotin; also called target peptide
T2 peptide: AKPSLLSRVGALTNT
The description is as above.

B1: Antibody No. 46 (antibody, V domains shown)
VH: QVQLVQSGGGVVQPGRSLRLSCAASGFTFSSYAMHWVRQAPGKGLEWVAVISYDGSNKYYADSVKGRFTISRDNSKNTLYLQMNSLRAEDTAVYYCARDQYDILTGYGGTALDYWGQGTLVTVSS
VL: QSALTQPPSASGSPGQSVTISCTGTSSDVGGYNYVSWYQQHPGEAPKLMIYEVSKRPSGVPDRFSGSKSGNTASLTVSGLQAEDEADYYCSSYAGSNNLVFGGGTKLTVL
notes: human IgG1, lambda or kappa light chain; also called 447-B07
Consider B1, for which the binding result in experiment [1] is “binds”.

B2: Antibody No. 13 (antibody, V domains shown)
VH: QVQLVQSGGGLVQPGRSLRLSCAASGFTFDDYAMHWVRQAPGKGLEWVSGISWNSGSIGYADSVKGRFTISRDNAKNSLYLQMNSLRAEDTALYYCAKEDGSYALDYWGQGTLVTVSS
VL: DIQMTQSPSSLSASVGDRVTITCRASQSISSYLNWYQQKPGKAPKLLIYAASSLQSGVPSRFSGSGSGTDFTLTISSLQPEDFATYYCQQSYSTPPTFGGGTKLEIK
notes: human IgG1, lambda or kappa light chain; also called 432-G09
Regarding B2, the binding result in experiment [2] is reported as “binds”.

B3: Antibody No. 34 (antibody, V domains shown)
VH: QVQLVESGGGLVQPGRSLRLSCAASGFTFDDYAMHWVRQAPGKGLEWVSGISWNSGSIGYADSVKGRFTISRDNAKNSLYLQMNSLRAEDTALYYCAKEGGDSDFDYWGQGTLVTVSS
VL: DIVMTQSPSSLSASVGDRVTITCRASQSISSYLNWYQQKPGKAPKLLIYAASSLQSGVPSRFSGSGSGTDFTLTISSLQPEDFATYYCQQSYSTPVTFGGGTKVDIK
notes: human IgG1, lambda or kappa light chain; also called 447-B01
Take B3: in experiment [2], the binding result is “binds”.

B4: Antibody No. 40 (antibody, V domains shown)
VH: EVQLLESGGGLVKPGGSLRLSCAASGFTFSDYYMSWIRQAPGKGLEWVSYISSSSSYTNYADSVKGRFTISRDNAKNSLYLQMNSLRAEDTAVYYCARLSTVTRAFDIWGQGTMVTVSS
VL: DIQLTQSPSSVSASVGDRVTITCRASQGISSWLAWYQQKPGKAPKLLIYAASSLQSGVPSRFSGSGSGTDFTLTISSLQPEDFATYYCQQANSFPPTFGQGTKLEIK
notes: human IgG1, lambda or kappa light chain; also called 447-F11
Consider B4, for which the binding result in experiment [1] is “binds”.

B5: Antibody No. 57 (antibody, V domains shown)
VH: QVQLVESGAEVKKPGASVKVSCKASGYTFTSYYMHWVRQAPGQGLEWMGIINPSGGSTSYAQKFQGRVTMTRDTSTSTVYMELSSLRSEDTAVYYCARMTTSLGFDYWGQGTLVTVSS
VL: DIQLTQSPSSVSASVGDKVTITCRASQGISNWLAWYQLKPGKAPKLLVYAASSLQSGVPSRFSGSGSGTDFTLTISNLQPEDFATYYCQQANSLPLTFGGGTRLEIK
notes: human IgG1, lambda or kappa light chain; also called 447-H10
Regarding B5, the binding result in experiment [1] is “binds”.

B6: Antibody No. 52 (antibody, V domains shown)
VH: QVQLVQSGAEVKKPGASVKVSCKASGYTFTSYGISWVRQAPGQGLEWMGWISAYNGNTNYAQKLQGRVTMTTDTSTSTAYMELRSLRSDDTAVYYCASWGVVGGMDVWGQGTLVTVSS
VL: DIQMTQSPSSVSASVGDRVTITCRASQGISSWLAWYQQKPGKAPKLLIYAASSLQSGVPSRFSGSGSGTDFTLTISSLQPEDFATYYCQQANSFPLTFGGGTKVDIK
notes: human IgG1, lambda or kappa light chain; also called 448-F05
B6: the binding result in experiment [1] was “binds”.

B7: Antibody No. 49 (antibody, V domains shown)
VH: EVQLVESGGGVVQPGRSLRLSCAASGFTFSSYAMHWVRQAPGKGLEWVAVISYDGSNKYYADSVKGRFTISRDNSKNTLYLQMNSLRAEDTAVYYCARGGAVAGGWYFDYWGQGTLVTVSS
VL: DIVMTQSPSSVSASVGDRVTITCRASQGISSWLAWYQQKPGKAPKLLIYAASSLQSGVPSRFSGSGSGTDFTLTISSLQPEDFATYYCQQANSFPPTFGQGTKLEIK
notes: human IgG1, lambda or kappa light chain; also called 448-H04
Turning to B7, the binding result in experiment [1] was “binds”.

B8: Antibody No. 41 (antibody, V domains shown)
VH: QVQLVQSGGGVVQPGRSQRLSCAASGFTFSNAWMSWVRQAPGKGLEWVSAISGSGGSTYYADSVKGRFTISRDNSKNTLYLQMNSLRAEDTAVYYCAANEGGDAFDIWGQGTMVTVSS
VL: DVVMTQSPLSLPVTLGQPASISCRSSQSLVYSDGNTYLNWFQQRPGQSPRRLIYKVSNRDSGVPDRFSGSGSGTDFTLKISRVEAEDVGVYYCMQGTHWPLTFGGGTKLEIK
notes: human IgG1, lambda or kappa light chain; also called 447-E10
B8: in experiment [1], the binding result is “binds”.

B9: Antibody No. 42 (antibody, V domains shown)
VH: QVQLVESGGGVVQPGRSLRLSCAASGFTFSNYAMHWVRQAPGKGLEWVAVISYDGSKKYYADSVKGRFTISRDNSKNTLYLQMNSLGAEDMAVYYCAREDPRRGGIDYWGQGTLVTVSS
VL: QSVLTQPPPVSGAPGQRVTISCTGSSSNIGAGYDVHWYQQLPGTAPKLLIYGNSNRPSGVPDRFSGSKSGTSASLAITGLQAEDEADYYCQSYDSSLSGYVFGTGTKVTVL
notes: human IgG1, lambda or kappa light chain; also called 447-B06
As for B9, the binding result in experiment [1] was “binds”.

B10: Antibody No. 24 (antibody, V domains shown)
VH: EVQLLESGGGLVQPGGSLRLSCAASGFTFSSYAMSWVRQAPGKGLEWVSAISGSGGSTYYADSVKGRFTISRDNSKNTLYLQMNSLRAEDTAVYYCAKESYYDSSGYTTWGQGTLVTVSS
VL: QSVLTQPPSVSGAPGQRVTISCTGSSSNIGAGYDVHWYQQLPGTAPKLLIYGNSNRPSGVPDRFSGSKSGTSASLAITGLQAEDEADYYCQSYDSSLSGYVFGTGTKLTVL
notes: human IgG1, lambda or kappa light chain; also called 447-C09
As for B10, the binding result in experiment [1] is “binds”.

B11: Antibody No. 47 (antibody, V domains shown)
VH: QVQLVQSGGGVVQPGRSLRLSCAASGFTFSSYAMHWVRQAPGKGLEWVAVISYDGSNKYYADSVKGRFTISRDNSKNTLYLQMNSLRAEDTAVYYCAREAGEGVDYWGQGTLVTVSS
VL: QSVLTQPPSVSGAPGQRVTISCTGSSSNIGAGYDVHWYQQLPGTAPKLLIYGNSNRPSGVPDRFSGSKSGTSASLAITGLQAEDEADYYCQSYDSSLSGYVFGTGTKLTVL
notes: human IgG1, lambda or kappa light chain; also called 447-A08
As to B11, the binding result in experiment [1] is reported as “binds”.

B12: Antibody No. 48 (antibody, V domains shown)
VH: EVQLVQSGGGVVQPGRSLRLSCAASGFTFSSYAMHWVRQAPGKGLEWVAVISYDGSNKYYADSVKGRFTISRDNSKNTLYLQMNSLRAEDTAVYYCAAESAYSSSWSGLRFDPWGQGTLVTVSS
VL: QSVLTQPPSVSGAPGQRVTISCTGSSSNIGAGYDVHWYQQLPGTAPKLLIYGNSNRPSGVPDRFSGSKSGTSASLAITGLQAEDEADYYCQSYDSSLSGYVFGTGTKLTVL
notes: human IgG1, lambda or kappa light chain; also called 447-B08
Regarding B12, in experiment [1], the binding result is “binds”.

B13: Antibody No. 45 (antibody, V domains shown)
VH: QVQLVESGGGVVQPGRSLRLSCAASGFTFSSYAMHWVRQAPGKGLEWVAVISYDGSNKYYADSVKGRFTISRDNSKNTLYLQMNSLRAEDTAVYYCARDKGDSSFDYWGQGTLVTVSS
VL: QSVLTQPPSVSGAPGQRVTISCTGSSSNIGAGYDVHWYQQLPGTAPKLLIYGNSNRPSGVPDRFSGSKSGTSASLAITGLQAEDEADYYCQSYDSSLSGVVFGGGTKVTVL
notes: human IgG1, lambda or kappa light chain; also called 447-E08
B13: the binding result in experiment [1] is “binds”.

B14: Antibody No. 26 (antibody, V domains shown)
VH: EVQLLESGGGVVQPGRSLRLSCAASGFTFSSYAMHWVRQAPGKGLEWVAVISYDGSNKYYADSVKGRFTISRDNSKNTLYLQMNSLRAEDTAVYYCARELYYGPGGMDVWGQGTLVTVSS
VL: QSVLTQPPSVSGAPGQRVTISCTGSSSNIGAGYDVHWYQQLPGTAPKLLIYGNSNRPSGVPDRFSGSKSGTSASLAITGLQAEDEADYYCQSYDSSLSGSVFGGGTKLTVL
notes: human IgG1, lambda or kappa light chain; also called 447-D06
In the case of B14, in experiment [1], the binding result is “binds”.

B15: Antibody No. 23 (antibody, V domains shown)
VH: QVQLVQSGGGLVQPGRSLRLSCAASGFTFDDYAMHWVRQAPGKGLEWVSGISWNSGSIGYADSVKGRFTISRDNAKNSLYLQMNSLRAEDTALYYCAKDIAGGDYPVFDYWGQGTLVTVSS
VL: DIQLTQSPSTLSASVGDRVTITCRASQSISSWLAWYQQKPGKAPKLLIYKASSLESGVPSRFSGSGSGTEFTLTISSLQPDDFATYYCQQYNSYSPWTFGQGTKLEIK
notes: human IgG1, lambda or kappa light chain; also called 435-B08
B15: in experiment [1], the binding result was “binds”.

B16: Antibody No. 55 (antibody, V domains shown)
VH: QVQLVQSGAEVKKPGASVKVSCKASGYTFTSYYMHWVRQAPGQGLEWMGIINPSGGSTSYAQKFQGRVTMTRDTSTSTVYMELSSLRSEDTAVYYCARDDYGDYWGQGTLVTVSS
VL: QSALTQPASVSGSPGQSITIPCTGTSSDVGGYNYVSWYQQHPGKAPKLMIYEVSNRPSGVSNRFSGSKSGNTASLTISGLQAEDEADYYCSSYTSSSFSFGTGTKLTVL
notes: human IgG1, lambda or kappa light chain; also called 447-C08
For the molecule B16, the binding result in experiment [1] is reported as “binds”.

B17: Antibody No. 31 (antibody, V domains shown)
VH: EVQLLESGGGVVQPGRSLRLSCAASGFTFSSYAMHWVRQAPGKGLEWVAVISYDGSNKYYADSVKGRFTISRDNSKNTVSLQMSSLRADDTAIYYCVKDTILIDWGQGTLVTVSS
VL: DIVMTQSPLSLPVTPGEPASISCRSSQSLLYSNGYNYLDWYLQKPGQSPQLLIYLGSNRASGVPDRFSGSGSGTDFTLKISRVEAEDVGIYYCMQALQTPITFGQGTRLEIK
notes: human IgG1, lambda or kappa light chain; also called 448-E06
Take B17: the binding result in experiment [1] is given as “binds”.

B18: Antibody No. 30 (antibody, V domains shown)
VH: EVQLVQSGGGLVQPGGSLRLSCAASGFTFSSYAMSWVRQAPGKGLEWVSAISGSGGSTYYADSVKGRFTISRDNAKNSLYLQMNSLRAEDTAVYYCARVRVSDGRFDYWGQGTLVTVSS
VL: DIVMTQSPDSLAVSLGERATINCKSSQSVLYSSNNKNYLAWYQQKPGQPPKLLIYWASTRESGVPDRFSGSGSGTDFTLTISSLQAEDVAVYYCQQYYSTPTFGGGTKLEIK
notes: human IgG1, lambda or kappa light chain; also called 448-E04
Take B18: in experiment [1], the binding result is given as “binds”.

B19: Antibody No. 39 (antibody, V domains shown)
VH: QVQLVESGGGLVQPGRSLRLSCAASGFTFDDYAMHWVRQAPGKGLEWVSGISWNSGSIGYADSVKGRFTISRDNAKNSLYLQMNSLRAEDTALYYCAKDTTWGGSYPYFDYWGQGTLVTVSS
VL: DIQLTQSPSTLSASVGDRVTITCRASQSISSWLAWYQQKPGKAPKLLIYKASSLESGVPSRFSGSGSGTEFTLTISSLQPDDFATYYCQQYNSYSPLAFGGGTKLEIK
notes: human IgG1, lambda or kappa light chain; also called 448-H05
As for B19, in experiment [1], the binding result is “binds”.

B20: Antibody No. 53 (antibody, V domains shown)
VH: QVQLVQSGGGVVQPGRSLRLSCAASGFTFSSYGMHWVRQAPGKGLEWVAVISYDGSNKYYADSVKGRFTISRDNSKNTLYLQMNSLRAEDTAVYYCAKDFSDAFDIWGQGTMVTVSS
VL: QSVLTQPPSVSAAPGQKVTISCSGSSSNIGNNYVSWYQQLPGTAPKLLIYDNNKRPSGIPDRFSGSKSGTSATLGITGLQTGDEADYYCGTWDSSLSAVVFGGGTKVTVL
notes: human IgG1, lambda or kappa light chain; also called 447-G07
As to B20, in experiment [1], the binding result is “binds”.

B21: Antibody No. 54 (antibody, V domains shown)
VH: EVQLLESGGGVVQPGRSLRLSCAASGFTFSSYGMHWVRQAPGKGLEWVAVISYDGSNKYYADSVKGRFTISRDNSKNTLYLQMNSLRAEDTAVYYCAKGSGWYFDYWGQGTLVTVSS
VL: not shown
notes: human IgG1, lambda or kappa light chain; also called 447-C12
As for B21, the binding result in experiment [1] was “binds”.

B22: Antibody No. 51 (antibody, V domains shown)
VH: QVQLQESGGGVVQPGRSLRLSCAASGFTFSSYAMHWVRQAPGKGLEWVAVISYDGSNKYYAGSVKGRFTISRDNSKNTLYLQMNSLRAEDTAVYYCARDWRGVYFDYWGQGTLVTVSS
VL: QSALTQPASVSGSPGQSITISCTGTSSDVGGYNYVSWYQQHPGKAPKLMIYEVSNRPSGVSNRFSGSKSGNTASLTISGLQAEDEADYYCSSYTSSSTLVFGGGTKLTVL
notes: human IgG1, lambda or kappa light chain; also called 447-E05
Regarding B22, the binding result in experiment [1] was “binds”.

B23: Antibody No. 28 (antibody, V domains shown)
VH: QVQLVQSGGGVVQPGRSLRLSCAASGFTFSSYAMHWVRQAPGKGLEWVAVISYDGSNKYYADSVKGRFTISRDNSKNTLYLQMNSLRAEDTAVYYCARDSGVVMDYWGQGTLVTVSS
VL: QSALTQPASVSGSPGQSITISCTGTSSDVGGYNYVSWYQQHPGKAPKLMIYDVSNRPSGVSNRFSGSKSGNTASLTISGLQAEDEADYYCSSYTSSSTLVFGGGTKVTVL
notes: human IgG1, lambda or kappa light chain; also called 447-F08
For B23, the binding result in experiment [1] was “binds”.

B24: Antibody No. 43 (antibody, V domains shown)
V domain 1: QVQLVQSGAEVKKPGSSVKVSCKASGGTFSSYAISWVRQAPGQGLEWMGGIIPIFGTANYAQKSQGRVTITADESTSTAYMELSSLRSEDTAVYYCARESGSGNRIPYGMDVWGQGTMVTVSS
V domain 2: QSVLTQPPSVSGAPGQRVTISCTGSSSNIGAGYDVHWYQQLPGTAPKLLIYGNSNRPSGVPDRFSGSKSGTSASLAITGLQAEDEADYYCQSYDSSLSGPVVFGGGTQVTVL
notes: human IgG1, lambda or kappa light chain; also called 447-A07
On to B24, for which the binding result in experiment [1] is “binds”.
